Laboratory results reported in patent publication US20230295597.

Experiments:
[1] = biological target: T1, trADAMTS-13^V313D (truncated ADAMTS-13 mutant, Val313 to Asp)
T1 chain: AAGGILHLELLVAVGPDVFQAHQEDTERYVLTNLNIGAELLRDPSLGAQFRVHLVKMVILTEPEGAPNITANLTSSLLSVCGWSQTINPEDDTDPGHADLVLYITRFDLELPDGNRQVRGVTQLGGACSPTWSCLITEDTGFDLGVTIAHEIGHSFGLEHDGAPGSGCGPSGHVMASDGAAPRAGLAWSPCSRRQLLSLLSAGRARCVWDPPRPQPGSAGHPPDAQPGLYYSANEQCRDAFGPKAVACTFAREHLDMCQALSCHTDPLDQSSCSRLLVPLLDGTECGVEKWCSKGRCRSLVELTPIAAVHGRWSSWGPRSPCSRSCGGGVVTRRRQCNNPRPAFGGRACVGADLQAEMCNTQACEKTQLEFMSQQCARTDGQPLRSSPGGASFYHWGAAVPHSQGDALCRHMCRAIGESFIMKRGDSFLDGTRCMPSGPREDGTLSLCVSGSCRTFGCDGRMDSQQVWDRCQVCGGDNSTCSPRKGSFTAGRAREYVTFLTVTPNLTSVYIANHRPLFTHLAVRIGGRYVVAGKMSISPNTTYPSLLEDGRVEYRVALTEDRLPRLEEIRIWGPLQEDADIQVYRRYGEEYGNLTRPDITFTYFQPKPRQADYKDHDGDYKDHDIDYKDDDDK

[2] = biological target: T2, trADAMTS-13^R312A (truncated ADAMTS-13 mutant, Arg312 to Ala)
T2 chain: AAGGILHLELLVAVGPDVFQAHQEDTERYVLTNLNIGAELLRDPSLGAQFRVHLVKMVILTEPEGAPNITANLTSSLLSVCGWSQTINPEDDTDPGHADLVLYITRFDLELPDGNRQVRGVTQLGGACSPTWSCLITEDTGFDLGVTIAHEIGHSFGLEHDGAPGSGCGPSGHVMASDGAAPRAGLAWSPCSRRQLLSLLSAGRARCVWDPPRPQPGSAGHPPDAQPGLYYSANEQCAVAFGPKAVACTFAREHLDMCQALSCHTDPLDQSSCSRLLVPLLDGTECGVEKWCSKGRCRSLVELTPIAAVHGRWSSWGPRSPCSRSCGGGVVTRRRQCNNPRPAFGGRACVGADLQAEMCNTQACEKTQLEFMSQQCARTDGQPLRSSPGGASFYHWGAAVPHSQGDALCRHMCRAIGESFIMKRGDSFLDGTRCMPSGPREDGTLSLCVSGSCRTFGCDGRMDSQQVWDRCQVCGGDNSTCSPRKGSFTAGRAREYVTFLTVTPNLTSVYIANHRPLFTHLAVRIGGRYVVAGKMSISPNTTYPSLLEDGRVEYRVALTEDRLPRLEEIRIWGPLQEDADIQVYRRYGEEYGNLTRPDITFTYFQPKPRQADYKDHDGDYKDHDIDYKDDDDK

[3] = biological target: T3, truncated recombinant human ADAMTS-13 variant (MDTCS), trADAMTS-13 WT
T3 chain: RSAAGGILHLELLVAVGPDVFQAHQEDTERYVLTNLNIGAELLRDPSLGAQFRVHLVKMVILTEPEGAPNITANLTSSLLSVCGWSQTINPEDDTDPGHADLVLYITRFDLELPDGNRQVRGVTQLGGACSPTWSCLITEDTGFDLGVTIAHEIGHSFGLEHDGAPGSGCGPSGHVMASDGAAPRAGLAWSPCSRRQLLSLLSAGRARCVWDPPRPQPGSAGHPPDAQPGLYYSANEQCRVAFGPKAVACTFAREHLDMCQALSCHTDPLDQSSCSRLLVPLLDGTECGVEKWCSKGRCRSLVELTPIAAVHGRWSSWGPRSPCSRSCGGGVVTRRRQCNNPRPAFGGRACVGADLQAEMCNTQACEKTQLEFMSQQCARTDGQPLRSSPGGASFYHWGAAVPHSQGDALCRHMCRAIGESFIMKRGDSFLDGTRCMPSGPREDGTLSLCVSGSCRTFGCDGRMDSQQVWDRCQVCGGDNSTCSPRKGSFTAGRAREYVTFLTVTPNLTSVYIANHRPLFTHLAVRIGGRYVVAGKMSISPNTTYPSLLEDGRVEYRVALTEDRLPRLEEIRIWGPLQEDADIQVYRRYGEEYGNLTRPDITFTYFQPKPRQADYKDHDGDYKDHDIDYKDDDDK

B1: tissue plasminogen activator (tPA) (protein)
chain: SYQVICRDEKTQMIYQQHQSWLRPVLRSNRVEYCWCNSGRAQCHSVPVKSCSEPRCFNGGTCQQALYFSDFVCQCPEGFAGKCCEIGNSDCYFGNGSAYRGTHSLTESGASCLPWNSMILIGKVYTAQNPSAQALGLGKHNYCRNPDGDAKPWCHVLKNRRLTWEYCDVPSCSTCGLRQYSQPQFRIKGGLFADIASHPWQAAIFAKHRRSPGERFLCGGILISSCWILSAAHCFQERFPPHHLTVILGRTYRVVPGEEEQKFEVEKYIVHKEFDDDTYDNDIALLQLKSDSSRCAQESSVVRTVCLPPADLQLPDWTECELSGYGKHEALSPFYSERLKEAHVRLYPSSRCTSQHLLNRTVTDNMLCAGDTRSGGPQANLHDACQGDSGGPLVCLNDGRMTLVGIISWGLGCGQKDVPGVYTKVTNYLDWIRDNMRP
residual proteolytic activity on vWF after 6 hours with or without tPA [1]: trADAMTS-13^R312K and trADAMTS-13^V313D variants were resistant to inactivation by tPA
residual proteolytic activity on vWF after 6 hours with or without tPA [2]: tPA inhibited the proteolytic activity of trADAMTS-13^R312A and trADAMTS-13^V313A variants on vWF (FIG. 8)
ADAMTS-13 activity with or without preincubation with tPA (technozym kit) [3]: the activity of both trADAMTS-13 and ADAMTS-13 WT was reduced in the presence of tPA (FIG. 4B)
activity of trADAMTS-13 WT after 4 hr in soluble fibrin (2 uM) or PBS, without or with tPA (100 nM) [3]: The addition of soluble fibrin reversed the tPA-mediated reduction in ADAMTS-13 activity (FIG. 14A)
cleavage by tPA (Western blot) and residual proteolytic activity on vWF over time [3]: trADAMTS-13 was proteolyzed completely (FIG. 7A) and lost its catalytic activity (FIG. 7B)
cleavage of trADAMTS-13 (500 nM) by tPA (100 nM), Western blot [3]: in the presence of tPA, it is cleaved (FIG. 4C)
